Assay: yeast display, Sf9 membrane polyspecificity reagent, FACS + sequencing; frameworks hold sequencing errors
Outline: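 Galactose-induced (36–48 hours) yeast carrying a synthetic nanobody display library were exposed to 10% biotinylated, detergent-solubilized Sf9 membrane reagent at 4 °C for 1 hour. FACS followed streptavidin microbead enrichment, using low and high (top ~1%) gates for expression (anti-HA) and reagent binding (streptavidin). Colony PCR, MiSeq 2 × 250 sequencing and CDR-length filtering followed. Labels for polyreactivity reflect the gate of origin.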

Row | Sequence | polyreactivity (PSR sort gate)
1 | QVQLVESGGGLVQAGGSLRLSCAASGITLQFYAIGWYRQAPGKERELVAAISISGGRTYYADSVKGRFTISRDNAKNTVYLQMNSLKPEDTAVYYCAAYLQRAYRYGYWGQGTQVTVSS | high polyreactivity
2 | QVQLVESGGGLVQAGGSLRLSCAASGITLRRYAMGWYRQAPGKDRELVDVISVSGGRTHYADSVKGRFTISRDNAKNSVYLQMNSLNPEDTAVYYGAAHFSYRYYTDEVGYWGQGTQVTVSS | high polyreactivity
3 | QVQLVESGGGLVQAGGSLRLSCAASGITLSANAMGWYRQAPGKERELVATITWSGGSTYYADSVKGRFTISRDNAKNTVYLQMNSLKPEDTAVYYCNARSYDEYPYYSYNYWGQGTQVTVSS | low polyreactivity
4 | QVQLVESGGGLVQAGGSLRLSCAASGITLSWYAMGWSRQAPGKERELVAGISGRGGRTYYADSVKGRFTISRDNAKNTVYLQMNSLKPEDTAVYYCAADCPGYRSYDYWGQGTQVTVSS | high polyreactivity
5 | QVQLVESGGGLVQAGGSLRLSCAASGITLTIYVMGWYRQAPGKEREFVAAISKSGGSTYYADSVKGRFTISRDNAKNTVYLQMNSLKPEDTAVYYCAADVILYDFADYYVIYDYWGQGTQVTVSS | high polyreactivity
6 | QVQLVESGGGLVQAGGSLRLSCAASGITLTKNAMGWYSQAPGKERELVAGITRGSRTNYADSVKGRFTISRDNAKNTVYLQMNSLKPEDTAVYYCAASYWPYRGPVGGSKMYYWGQGTQVTVSS | high polyreactivity
7 | QVQLVESGGGLVQAGGSLRLSCAASGITLYANAMGWYREAPGKERELVAVISKGSGSTYYPDSVKGRFTISRDNAKNTVYLQMNSLKPEDTAVYYCAAGRKGSMYYWGQGTQVTVSS | high polyreactivity
8 | QVQLVESGGGLVQAGGSLRLSCAASGITLYFYARGWYRQAPGKERELVAAISRGGRTYYADSVKGRFTISRDNAKNTVYLQMNSLKPEDTAVYDCAARYTSEYSAFDYWGQGTQVTVSS | low polyreactivity
9 | QVQLVESGGGLVQAGGSLRLSCAASGITLYQYAMGWYRQAPGKERELVAAISWNGGTTYYADSVKGRFTISRDNAKNNVYLQMNSLKPEDTAVYYCAADGYPYGGPSYYYWGQGTQVTVSS | high polyreactivity
10 | QVQLVESGGGLVQAGGSLRLSCAASGITLYRYTMGWDRQAPGTEREFVAAISRSGGSTYYADSVKGRFTISRDNEKNTVYVQMNSLKPEDTAVYYCAARWYEKTTRPYGSWGQGTQVTVSS | high polyreactivity
11 | QVQLVESGGGLVQAGGSLRLSCAASGITSKQYAMGWYRQAPGKEWELVAAISGSGTRTYYADSVKGRFTISRDNAKNTVYLQMNSQKPEDTAVYYCAAYYHLVVKRLRYDYWGQGTQVTVSS | high polyreactivity
12 | QVQLVESGGGLVQAGGSLRLSCAASGITSNTYAKGWYRQATGKERELVATITSGGSTNYADSVKGRFTISRDNAKNTVYLQMNSLKPEDTAVYFCNREYWLPTQFDYWGQGTQVTVSS | low polyreactivity
13 | QVQLVESGGGLVQAGGSLRLSCAASGITSPSYAMGWYRQAPGKERELVAAISTSGGDTYYADSVKGRFTISRDKAKNTVYLQMNSLKPEDTAVYYCAAPVPAYQYYYRLKSFGRRYDHWGQGTQVTVSS | low polyreactivity
14 | QVQLVESGGGLVQAGGSLRLSCAASGITSVDYAMRWYRQAPGKERELVAAITWSDSSTYYADSVKGRFTISRDNAKNTVYLQMNSLKPEDTAVYYCAAEYYFWGWEFDYWGQGTQVTVSS | high polyreactivity
15 | QVQLVESGGGLVQAGGSLRLSCAASGITTRTYAMGWYRQAPGKDRELVAAISDSGDRTYYADSVKGRCTISRDKAKNTVYLQMNSLKPEDTAVYYCAVDAPGPRGEYWGQGTKVTVSS | low polyreactivity
16 | QVQLVESGGGLVQAGGSLRLSCAASGITVALNAMGWYRQAPGKERELVAAISWSGDSTYYADSVKGRFTISRDNAKNTVYLQMNSLKPEDTAVYYCNTYPRRFFYSQRYDYWGQGTQVTVSS | low polyreactivity
17 | QVQLVESGGGLVQAGGSLRLSCAASGITVDYYVMGWYRQAPGKERELVASIDSGGRTKYADSVKGRFTISRDNAKNTVYLQMNILKPEDTAVYYCAARSYVFRSRWIRWPKYWGQGTQVTVSS | high polyreactivity
18 | QVQLVESGGGLVQAGGSLRLSCAASGITVWIYAMGWYRQAPGKERELVAAITGRGGSTYYADSVKGRFTISRDKAKNTLYLQRNSLKPEDTAVYYCAAESWYSTYDYWGQGTQVTVSS | high polyreactivity
19 | QVQLVESGGGLVQAGGSLRLSCAASGITYGYVMGLYRQAPGKERELVAAISYRGGSTYYADSVKGRFTISRDNAKNTVYLQMNSLKPEDTAVYYCATEASGKTYGYVAYDYWGQGTQVTVSS | high polyreactivity
20 | QVQLVESGGGLVQAGGSLRLSCAASGITYTVYAMGWYRQAPGKERELVAVINESGGSTYYADSVKGRFTISRDNAKNTVYLQMNSLKPEDTAVYYCNKTRVYVSSTYDYWGLGTQVTVSS | low polyreactivity
21 | QVQLVESGGGLVQAGGSLRLSCAASGIYAYVMGWYRPAPGKERELVAAISGTGGRTYYADSVKGRFTISRDNAKNTVYLQMNSLKPEDTAVYYCAARGIYQPKTFDYWGQGTQVTVSS | high polyreactivity
22 | QVQLVESGGGLVQAGGSLRLSCAASGKTFDPNAMGWYIPAPGKEREFVAAIATIGSSTYYADSVKGRFTMSRDNAKNTVYLPMTCLKPEDSAVYYCAKGIYVVYGIDDYWGQGTQVTVSS | low polyreactivity

Row | Sequence | polyreactivity (PSR sort gate)
23 | QVQLVESGGGLVQAGGSLRLSCAASGKTFVYYTMGWYRQAPGKERELVAAISYSGGSTYYADSVKGRFTLSRDNAKNTVYLQMNSLKPEDTAVYYCAKQVADRYDYWGQGTQVTVSS | low polyreactivity
24 | QVQLVESGGGLVQAGGSLRLSCAASGLICTPYAMGWYRQSPGKERELVAAISVSGGRTYYADSVKGRFTISRDNAKNTVYLQMNSLKREDTAVYYCAAALPYGYEYWGQGTQVTVSS | high polyreactivity
25 | QVQLVESGGGLVQAGGSLRLSCAASGLIFAEYAMGWYRQAPGKERELVARITSAGSTDYADSVKGRFTISRDNAKNTVYLQMNSLKPEDTAVYYCAARYYSQDKNASTASDFDYWGQGTQVTVSS | low polyreactivity
26 | QVQLVESGGGLVQAGGSLRLSCAASGLIFAEYAMGWYRQAPGKERELVARITSGGSTDYADSVKGRFTISRDNAKNTVYLQMNRLKPEDTAVYYCSARYYSQDKNASTASDFDYWGQGTQVTVSS | low polyreactivity
27 | QVQLVESGGGLVQAGGSLRLSCAASGLIFAGNDMGWYRQAPGKERELVARITNGGGSTYYADSVKGRFTISRDNAKNTVYLQMNSLKPEDTAVYYCNAGRSSGYSYDSWGPGTQVTVSS | low polyreactivity
28 | QVQLVESGGGLVQAGGSLRLSCAASGLIFAIYAMGWYRKAPGKERELVAAISSGGGRTYYADSVKGRFTISRDNAKNTVYLQMNSLKPEDTAVYYCNARYRTVRSGGEYWVLMDYWGQGTQVTVSS | high polyreactivity
29 | QVQLVESGGGLVQAGGSLRLSCAASGLIFANNAMGWYRQAPGKERELVAVISRGGRTYYADSVKGRFTISRDNAKNTVYLQMNSLKPEDTAVYYCAKPVLVGLGARYVYWGQGTQVTVSS | high polyreactivity
30 | QVQLVESGGGLVQAGGSLRLSCAASGLIFASYAMGWYRQAPGKERELVAAITSSGGSTYYADSVKGRFTISRDNAKNTVYLQMNSLKPEDTAVYYCAADIYTYNLFYHWSWLDYNYWGQGTQVTVSS | high polyreactivity
31 | QVQLVESGGGLVQAGGSLRLSCAASGLIFDANAMGWYRLAPVKERELVAAITGSGGRTYSADSVKGRFTISRDTANYTVYCQMNCLKPEATGVYYCAASSKRKVLYNYWGQGTQVTVSS | high polyreactivity
32 | QVQLVESGGGLVQAGGSLRLSCAASGLIFDPNTMGWYRQAPGKERELVAAISSGGDTNYADSVKGRFTISRDNAKNTVYLQMNSQKPEDTAVYYCATDIRFHDPSEYEGVHFEYWGQGTQVTVSS | low polyreactivity
33 | QVQLVESGGGLVQAGGSLRLSCAASGLIFEYYAMGWYRQAPGKERELVAVINWSGASTYYADSVKGRFTISRDNAKNTVYLQMNSLKPEDTAVYYCAAGVLITGLRFDYWGQGTQVTVSS | low polyreactivity
34 | QVQLVESGGGLVQAGGSLRLSCAASGLIFGINAMGWYRQAPGKERELVASISRSTTRTYYADSVKGRFTISRDNAKNTVYLQMNSLKPEDTAVYYCAARQSPNRWMGYWGQGTQVTVSS | high polyreactivity
35 | QVQLVESGGGLVQAGGSLRLSCAASGLIFGPNAMGWYRQSPGKERELVAAITKSGDSTYYADSVKGRFTISRDNAKNTVYLQMNSLKPEDTAVYYCAADTTTGLYDYWGQGTQVTVSS | low polyreactivity
36 | QVQLVESGGGLVQAGGSLRLSCAASGLIFGPYAVGWYRQAPGKERELVAGISRGGSTYYADSVKGRFTISRDNAKKTVYLQMNSLKPEDTAVYYCAASRRYRGVNRPGDYWGQGTQVTVSS | high polyreactivity
37 | QVQLVESGGGLVQAGGSLRLSCAASGLIFGRNVMGWYRQAPGKERELVAAISWSGGRTYYADSVKGRFTISRDNEKNTVYLQMNSLKPEDTAVYYCAAGYPYYYWTPYYYWGQGTQVTVSS | high polyreactivity
38 | QVQLVESGGGLVQAGGSLRLSCAASGLIFGVNAMGWYRQAPGKERELVAVISRGGRTNYADSVKGRFTISRDNAKNTVYLQMNSLKPEDTAVYYCATYYTNKVPARYYWGQGTQVTVSS | high polyreactivity
39 | QVQLVESGGGLVQAGGSLRLSCAASGLIFGVYAMGWYRQAPGKESELVAAISKNGDRTYYADSVKGRFTISRDNAKNTVYLQMNCLKPEDTAVYYCAAVWARSTYGPYYYWGQGTQVTVSS | high polyreactivity
40 | QVQLVESGGGLVQAGGSLRLSCAASGLIFGYNAMGWYRQAPGKERELVAGISSGGSTNYADSVKGRFTISRDNAKNTVYLQMNSLKPEDTAVYYCNADGYLAERFVIRLDEYRDYDYWGQGTQVTVSS | low polyreactivity
41 | QVQLVESGGGLVQAGGSLRLSCAASGLIFHHNAMGWYRQTPGKERELVAAISRSAGSTYYADSVKGRFTISRDNAKNTVYLQMKSLKPEDTAVYYCAKGPTPTSKYDTVGYGYWGQGTQVTVSS | low polyreactivity
42 | QVQLVESGGGLVQAGGSLRLSCAASGLIFHPYTMGWYRQAPGKERELVAAITSTGGSTYYADSVKGRFTISRDNAKNTVYLQMNSLKPEDTAVYYCATDYGYYDYWGQGTQVTVSS | low polyreactivity
43 | QVQLVESGGGLVQAGGSLRLSCAASGLIFHSYAMGWYRPAPGKERELVAAISRGGGSTYYADSVKGRFTISRDNAKNTVYLQMNSLKPEDTAVYYCAREYFTRYDYWGQGTQVTVSS | high polyreactivity
